Measured values as given in US20200392528A1, “IMPROVED PLANT EPSP SYNTHASES AND METHODS OF USE” (PIONEER HI-BRED INTERNATIONAL, INC., priority 2017, published 2020).
Where two headings read alike, the source gives them in different places.

Experiments:
maize EPSPS [1] = test: kcat gly / kgly: enzyme turnover under application conditions (30 μM PEP and S3P, 1 mM glyphosate), phosphate release coupled to MESG; type: biochemical
Protocol: A more straight-forward, accurate and meaningful parameter is one in which one rate measurement is performed under presumed in vivo conditions, if known. To establish a set of conditions that mimic those under which the mutated enzyme needs to perform, the concentrations of PEP and S3P were set low (30 uM, subject to the sensitivity of assay conditions) to approach the presumed intracellular concentrations (˜15 uM, the approximate values of KM for both PEP and S3P). Glyphosate is included at 1 mM. The pH is set at 7.0 and ionic strength at 100 mM KCl, also to mimic known in vivo conditions. Ethylene glycol is present at 5% (v/v) to approximate the dielectric constant of intracellular fluid. The parameter is termed “enzyme turnover under application conditions”, which is herein shortened to “kcat gly”. The conventional formatting of the expression “kcat” is not used, to avoid this term being characterized as a standard kinetic constant.
(§1) EPSPS activity was determined by quantifying the phosphate generated from the EPSPS reaction. Release of inorganic phosphate was coupled to its reaction with 2-amino-6-mercapto-7-methylpurine ribonucleoside (MESG), catalyzed by purine nucleoside phosphorylase, according to previously described protocols. To determine the kcat gly, enzyme preparations were normalized to 0.1 mg/ml and four- to six-microliter aliquots of normalized enzyme were added to the wells of a low UV-absorbing 96-well assay plate (Greiner UV-Star). Reactions were started with the addition of 2×147 μl of reaction mixture containing 25 mM Hepes, pH 7.0, 100 mM KCl, 5% ethylene glycol, 30 μM each of PEP and S3P, 0.15 mM MESG, 1.5 U/ml purine nucleoside phosphorylase (Sigma N8264) and 1 mM glyphosate. Absorbance was monitored at 4 sec intervals for 50 sec with a Spectramax plate reader (Molecular Devices). […] Division by the enzyme concentration (0.04 to 0.1 uM, depending on activity) yields “kcat gly” in units of min^−1.
(§2) Approximately 30 substitutions were designed into each library. Assuming an average incorporation rate of six substitutions per variant, the theoretical size of such libraries is ˜7×10^5. Libraries were screened using methods described previously and the enhanced method described in Example 2. The number of colony-forming units plated and screened was in the range of 50 to 100% of the theoretical size. Up to 200 colonies per library were picked for evaluation of the expressed variant. Proteins were purified as described previously in PCT/US2016/054399, incorporated herein by reference. Protein concentration was determined by measuring optical density at 280 nm. The extinction coefficient of native maize EPSPS (0.676 OD/mg/ml) was calculated by vNTI and used to convert OD280 to mg/ml. Kinetic parameters were determined as described in Example 1.
A customized parameter for predicting performance in the treated plant that would be a more accurate representation than kcat/Km*Ki. […] However, kcat/Km*Ki may be inadequate for predicting the reaction velocity under the conditions of the application (plants sprayed with glyphosate) because it may neglect concentrations of substrate and inhibitor, factors that are not intrinsic to the enzyme, but on which the reaction rate depends. Therefore, libraries derived from C1 on in FIG. 2 were evaluated with a single rate measurement designed to take all factors in the rate equation for competitive inhibition into account. […] Glyphosate was included at 1 mM, a concentration attainable in tissues, especially meristems, receiving metabolite flow from treated leaves. The pH (7.0), ionic strength (100 mM KCl) and co-solvent concentration (5% ethylene glycol) were also intended to mimic in vivo conditions. The unit for the parameter is reaction rate (μM·min^−1) per enzyme concentration (μM), or min^−1, describing the enzyme turnover under application conditions, which we abbreviate as “kgly”. […]

maize EPSPS [2] = test: substrate saturation kinetic analysis (kcat, KM PEP, KI glyphosate); type: biochemical; conditions: for kcat/Km*Ki: calculated with Km for PEP
Protocol: as §1, §2
Combinatorial shuffling, maize native EPSPS—The mutations discovered were used to construct a combinatorial library designed to explore combinations of the desensitizing mutations in novel sequence contexts provided by the newly identified neutral mutations. Note that the amino acid position numbering in this Example 10 refers to the relative position of native maize EPSPS without the N-terminal Met. Therefore, G101A in this Example would be G102A in reference to SEQ ID NO: 1, wherein the maize EPSPS sequence has a Met added at the N-terminal. The diversity used was the same with the addition of G101A, T102 (IALGV) and P106(WA). In all, 43 substitutions at 29 positions were selected. The library was synthesized entirely from oligonucleotides, using the known technique of synthetic shuffling and was termed NatFS (Native, fully synthetic). The vector DNA of the library was transformed into the BL21(DE3) Tuner-AroA knockout strain and the cells were plated onto M9 medium containing either 30 mM glyphosate and 30 μM of the lac operon inducer isopropyl β-D-1-thiogalactopyranoside (IPTG) or 50 mM glyphosate and no IPTG. The 184 colonies that grew on either plate were picked and subjected to a second tier of screening in which EPSPS proteins were purified and activity measured at high (200 μM) and low (50 μM) PEP and S3P, with or without 10 μM glyphosate. Selected variants were subjected to substrate saturation kinetic analysis.

[3] = Table 2, 30 μM PEP and S3P, 1 mM glyphosate, pH 7.0
[4] = Table 2, KM for PEP, read-out: KM
[5] = Table 2, discrimination between glyphosate and PEP
[6] = apparent Km, PEP present at 10 times its Km, read-out: Km S3P
[7] = apparent Km, S3P present at 10 times its Km, read-out: Km PEP

Molecule | kcat gly (maize EPSPS [1]; [3]) [s⁻¹] | Ki (maize EPSPS [2]; Ki for glyphosate) [µM] | kcat (maize EPSPS [2]; Table 2) [s⁻¹] | kcat/KM*KI (maize EPSPS [2]; Table 2) | Km (maize EPSPS [2]; [4]) [µM] | KI/KM (maize EPSPS [2]; [5]) | Ki (maize EPSPS [2]; Table 2, inhibitor glyphosate) [µM] | Km (maize EPSPS [2]; [6]) [µM] | Km (maize EPSPS [2]; [7]) [µM] | kcat/Km*Ki (maize EPSPS [2]) | kcat (maize EPSPS [2]; maize EPSPS variants) [s⁻¹] | other results
G102A: maize EPSPS with G102A mutation (G101A when numbered without N-terminal Met) (protein, Zea mays) MAGAEEIVLQPIKEISGTVKLPGSKSLSNRILLLAALSEGTTVVDNLLNSEDVHYMLGALRTLGLSVEADKAAKRAVVVGCGGKFPVEDAKEEVQLFLGNAATAMRPLTAAVTAAGGNATYVLDGVPRMRERPIGDLVVGLKQLGADVDCFLGTDCPPVRVNGIGGLPGGKVKLSGSISSQYLSALLMAAPLALGDVEIEIIDKLISIPYVEMTLRLMERFGVKAEHSDSWDRFYIKGGQKYKSPKNAYVEGDASSASYFLAGAAITGGTVTVEGCGTTSLQGDVKFAEVLEMMGAKVTWTETSVTVTGPPREPFGRKHLKAIDVNMNKMPDVAMTLAVVALFADGPTAIRDVASWRVKETERMVAIRTELTKLGASVEEGPDYCIITPPEKLNVTAIDTYDDHRMAMAFSLAACAEVPVTIRDPGCTRKTFPDYFDVLSTFVKN | 0.203 | 1930 ± 40 | 10.2 | 3176 | 315 | 5.11 | 1610 | 84 ± 2.5 | 333 ± 26 | 5780 | 16.67 ± 0.583 | kgly (maize EPSPS [1]; enzyme turnover at 30 μM PEP and S3P, 1 mM glyphosate): 25.7 ± 0.2 min⁻¹; increase in Ki for glyphosate (maize EPSPS [2]; relative to native EPSPS): 30,00 fold; increase in Km for PEP (maize EPSPS [2]; relative to native EPSPS): 35 fold; KI/KM (maize EPSPS [2]; text b176): 5.1
Zm native: native maize EPSPS with added N-terminal Met, SEQ ID NO: 1, reference EPSPS sequence (protein, Zea mays) MAGAEEIVLQPIKEISGTVKLPGSKSLSNRILLLAALSEGTTVVDNLLNSEDVHYMLGALRTLGLSVEADKAAKRAVVVGCGGKFPVEDAKEEVQLFLGNAGTAMRPLTAAVTAAGGNATYVLDGVPRMRERPIGDLVVGLKQLGADVDCFLGTDCPPVRVNGIGGLPGGKVKLSGSISSQYLSALLMAAPLALGDVEIEIIDKLISIPYVEMTLRLMERFGVKAEHSDSWDRFYIKGGQKYKSPKNAYVEGDASSASYFLAGAAITGGTVTVEGCGTTSLQGDVKFAEVLEMMGAKVTWTETSVTVTGPPREPFGRKHLKAIDVNMNKMPDVAMTLAVVALFADGPTAIRDVASWRVKETERMVAIRTELTKLGASVEEGPDYCIITPPEKLNVTAIDTYDDHRMAMAFSLAACAEVPVTIRDPGCTRKTFPDYFDVLSTFVKN | 0 | 0.066 ± 0.003 | 24.4 | 11.8 | 15.7 | 0.008 | 0.13 | 13.2 ± 0.6 | 9.5 ± 0.3 | 11 | 27.17 ± 0.233 | kcat/KM*KI (maize EPSPS [2]): 11.8; Km (maize EPSPS [2]; approximate value, read-out: Km for S3P): 10 to 15 µM; Ki (maize EPSPS [2]; glyphosate, text b235): 0.066 µM; Km (maize EPSPS [2]; read-out: Km for PEP): 10 to 15 µM
Zm D2: maize EPSPS variant, SEQ ID NO: 10 (protein, Zea mays) MRGWEEIVLQPIKEISGTVKLPGSKSLSNRILLLAALSEGTTVVDNLLNSEDVHYMLGALRTLGLSVEHDKAAKRAVVVGCGGRFPVEDAKGEVQLFCGNAATAMRPLTAAVTAAGGNATYVLDGVPRMRERPIGDLVVGLKQLGADVDCFLGTDCPPVRVNGIGGLPGGKVKLSGSISSQYLSALLMAAPLALGDVEIEIIDKLISLPYVEMTLRLMERFGVKAEHSDSWDRFYIKGGQKYESPKNAYVEGDASSASYFLAGAAITGGTVTVEGCGTTSLQGDVKFAEVLEMMGAKVTWTETSVTVTGPPREPFGRKHLKAIDVNMNKMPDAAMTLAVVALFADGPTAIRDVASWRVKETERMVAIRTELTKLGASVEEGPDYCIITPPPKLNVTAIDTYGDHRMAMAFSLAACAEVPVTIRDPGCTRKTFPDYFDVLSTFVKN | 1.72 |  | 6.07 | 18100 | 20 | 49.7 | 993 |  |  |  |  | kcat gly (maize EPSPS [1]; Table 5, maize variants): 1.9 s⁻¹; Zm/Os (maize EPSPS [1]; Table 5, ratio of kcat gly, maize variant to rice ortholog): 1.28
Zm D2-64: maize EPSPS variant, SEQ ID NO: 7 (protein, Zea mays) MRKWEEIVLQPIKEISGTVKLPGSKSLSNRILLLAALSEGTTVVDNLLNSEDVLYMLGALRTLGLSVEHDKAAKRAVVVGCGGRFPVEDAKGEVQLFCGNAATAMRPLTAAVTAAGGNATYVLDGVPRMRERPIGDLVVGLKQLGADVDCFLGTDCPPVRVNGIGGLPGGKVKLSGSISSQYLSALLMAAPLALGDVEIEIIDKLISLPYVEMTLRLMERFGVKAEHSDSWDRFYIKGGQKYESPKNAYVEGDASSASYFLAGAAITGGTVTVEGCGTTSLQGDVKFAEVLEMMGAKVTWTETSVTVTGPPREPFGRKHLKAIDVNMNKMPDAAMTLAVVALFADGPTAIRDVASWRVKETERMVAICTELTKLGASVEEGPDYCIITPPPKLNVTAIDTYGDHRMAMAFSLAACAEVPVTIRDPGCTRKTFPDYFDVLSTFVKN | 1.68 |  | 7.97 | 22900 | 19.6 | 47.9 | 938 |  |  |  |  | 
Zm D2-15: maize EPSPS variant, SEQ ID NO: 9 (protein, Zea mays) MRGWEEIVLQPIKEISGTVKLPGSKSLSNRILLLAALAEGTTVVDNLLNSEDVHYMLGALRTLGLSVEHDKAAKRAVVVGCGGRFPVEDAKEEVQLFCGNAATAMRPLTAAVTAAGGNATYVLDGVPRMRERPIGDLVVGLKQLGADVDCFLGTDCPPVRVNGIGGLPGGKVKLSGSISSQYLSALLMAAPLALGDVEIEIIDKLISLPYVEMTLRLMERFGVKAEHNDSWDRFYIKGGQKYESPKNAYVEGDASSASYFLAGAAITGGTVTVEGCGTTSLQGDVKFAEVLEMMGAKVTWTETSVTVSGPPREPFGRKHLKAIDVNMNKMPDAAMTLAVVALFADGPTAIRDVASWRVKETERMVAICTELTKLGASVEEGPDYCIITPPPKLNVTAIDTYGDHRMAMAFSLAACAEVPVTIRDPGCTRKTFPDYFDVLSTFVKN | 1.7 |  | 7.87 | 36400 | 21.8 | 77.1 | 1680 |  |  |  |  | 
